# The supplement of paper PMC11811203
# B1: THAP1; numbered along this chain (parent)
# chain: MVQSCSAYGCKNRYDKDKPVSFHKFPLTRPSLCKEWEAAVRRKNFKPTKYSSICSEHFTPDCFKRECNNKLLKENAVPTIFLCTEPHDKKEDLLEPQEQLPPPPLPPPVSQVDAAIGLLMPPLQTPVNLSVFCDHNYTVEDTMHQRKRIHQLEQQVEKLRKKLKTAQQRCRRQERQLEKLKEVVHFQKEKDDVSERGYVILPNDYFEIVEVPA
# Variants of: B1
# Assay: THAP1 transcriptional activity (GFP+/GFP- enrichment relative to wild-type constructs) (ratio to WT); higher = more THAP1 activity (PSMB5 reporter activation)
# Conditions: with PSMB5 promoter-GFP reporter
# Protocol: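 Deep mutational scan of human THAP1. Site-saturation single amino acid variant library (residues 2-213) was expressed by lentivirus at MOI ~0.3 in THAP1-knockout HEK-293T cells carrying an endogenous PSMB5 promoter-GFP knock-in reporter. Five days post-transduction, BFP+ cells were FACS-sorted into GFP dim and GFP bright populations and variants were counted by Illumina sequencing. Activity is the GFP-bright/GFP-dim read fold change, mean of 2 replicates, divided by the mean fold change of wild-type (synonymous) constructs in the same screen pool; WT = 1.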
row,Variant,THAP1 transcriptional activity
1,C83Y,2.11
2,C83I,1.18
3,C83G,1.18
4,C83Q,3.29
5,C83S,1.05
6,C83F,1.21
7,C83V,1.41
8,C83M,0.953
9,C83D,2.06
10,C83P,0.676
11,C83K,1
12,C83N,1.13
13,C83T,1.67
14,C83R,1.54
15,C83H,2.25
16,C83E,0.913
17,V77H,0.287
18,V77A,0.343
19,V77N,0.195
20,V77F,0.325
21,V77R,0.539
22,V77M,0.439
23,V77S,0.41
24,V77D,0.295

row,Variant,THAP1 transcriptional activity
1,V77Q,0.318
2,V77L,0.547
3,V77G,0.281
4,V77E,0.259
5,V77Y,0.279
6,V77W,0.267
7,V77C,0.434
8,L72T,0.0921
9,L72Y,0.172
10,L72M,0.106
11,L72S,0.092
12,L72F,0.177
13,L72Q,0.163
14,L72I,0.173
15,L72E,0.322
16,L72P,0.221
17,L72N,0.129
18,L72H,0.134
19,L72W,0.18
20,L72A,0.17
21,L72C,0.148
22,L72V,0.172
23,L72G,0.189
24,L72R,0.0764

row,Variant,THAP1 transcriptional activity
1,L72D,0.169
2,L72K,0.0937
3,T79W,0.281
4,T79D,0.228
5,T79M,0.254
6,T79E,0.254
7,T79A,0.438
8,T79K,0.278
9,T79C,0.183
10,T79N,0.622
11,T79Y,0.151
12,T79V,0.326
13,T79L,0.628
14,T79I,0.861
15,T79H,0.293
16,T79P,0.18
17,T79S,0.71
18,T79G,0.301
19,T79Q,0.296
20,K73L,0.33
21,K73F,0.19
22,K73P,0.102
23,K73T,0.514
24,K73W,0.212

row,Variant,THAP1 transcriptional activity
1,K73E,0.261
2,K73A,0.31
3,K73S,0.154
4,K73C,0.395
5,K73M,0.543
6,K73R,0.622
7,K73Q,0.273
8,K73I,0.142
9,K73G,0.194
10,K73V,0.644
11,K73Y,0.291
12,K73H,0.598
13,K73D,0.191
14,K73N,0.522
15,E66Y,0.777
16,E66W,1.25
17,E66V,0.638
18,E66N,2.46
19,E66T,1.3
20,E66P,0.346
21,E66Q,0.814
22,E66R,0.539
23,E66S,1.14
24,N68C,0.157

row,Variant,THAP1 transcriptional activity
1,N68F,0.0942
2,N68L,0.131
3,N68M,0.141
4,N68A,0.103
5,N68Y,0.125
6,N68P,0.161
7,N68S,0.192
8,N68T,0.179
9,N68D,0.0906
10,N68Q,0.193
11,N68G,0.127
12,N68H,0.2
13,N68R,0.161
14,N68V,0.125
15,N68K,0.162
16,N68W,0.089
17,N68I,0.15
18,L71C,1.42
19,L71P,0.113
20,L71M,0.941
21,L71H,0.403
22,L71G,0.187
23,L71S,0.483
24,L71T,0.52

row,Variant,THAP1 transcriptional activity
1,L71A,0.407
2,L71D,0.74
3,L71K,0.533
4,L71Q,0.432
5,L71I,1.07
6,L71N,0.266
7,L71Y,0.309
8,L71V,1.47
9,L71W,0.259
10,L71E,0.221
11,L71F,0.361
12,L71R,0.39
13,E85H,0.704
14,E85P,1.01
15,E85L,0.328
16,E85I,1.04
17,E85F,0.389
18,E85G,1.14
19,E85C,0.285
20,E85Q,1.16
21,E85A,0.937
22,E85M,0.346
23,E85D,0.708
24,N69G,0.122

row,Variant,THAP1 transcriptional activity
1,N69I,0.672
2,N69Q,0.143
3,N69M,0.597
4,N69F,0.109
5,N69T,0.226
6,N69C,0.181
7,N69E,0.0951
8,N69Y,0.261
9,N69H,0.344
10,N69S,0.193
11,N69R,0.216
12,N69P,0.092
13,N69K,0.133
14,N69V,0.399
15,N69W,0.0798
16,N69L,0.301
17,N69D,0.131
18,N69A,0.111
19,T84F,1.21
20,T84S,0.852
21,T84P,1.44
22,T84Q,1.65
23,T84G,0.785
24,T84K,2.57

row,Variant,THAP1 transcriptional activity
1,T84L,1.48
2,T84W,1.97
3,T84E,4.49
4,T84R,1.39
5,T84M,1.23
6,T84D,0.604
7,T84I,0.739
8,T84C,0.907
9,T84Y,1.82
10,T84H,0.92
11,L82K,0.792
12,L82V,1.71
13,L82E,1.33
14,L82D,1.34
15,L82M,0.668
16,L82H,1.27
17,L82C,0.521
18,L82P,2.38
19,L82R,0.825
20,L82T,2.19
21,L82W,2.23
22,L82N,1.88
23,L82S,0.94
24,L82G,1.31

row,Variant,THAP1 transcriptional activity
1,L82A,1.84
2,L82Y,1.46
3,L82Q,1.59
4,A76V,0.435
5,A76P,0.384
6,A76D,0.209
7,A76C,0.862
8,A76L,0.476
9,A76M,0.215
10,A76T,0.18
11,A76F,0.307
12,A76Y,0.191
13,A76N,0.121
14,A76Q,0.234
15,A76K,0.428
16,A76E,0.444
17,A76W,0.386
18,A76G,0.221
19,A76I,0.165
20,P78R,0.156
21,P78F,0.267
22,P78C,0.419
23,P78D,0.183
24,P78A,0.526

row,Variant,THAP1 transcriptional activity
1,P78Y,0.488
2,P78L,0.161
3,P78G,0.102
4,P78I,0.211
5,P78M,0.495
6,P78T,0.283
7,P78V,0.191
8,P78E,0.463
9,P78Q,0.241
10,P78N,0.269
11,E74G,0.501
12,E74R,0.858
13,E74D,0.59
14,E74Q,1.17
15,E74Y,0.453
16,E74F,1.09
17,E74M,0.293
18,E74P,0.952
19,E74C,0.522
20,E74T,0.334
21,E74S,0.604
22,E74W,0.598
23,E74H,0.512
24,E74V,0.618

row,Variant,THAP1 transcriptional activity
1,E74N,0.686
2,E74A,0.445
3,E74I,0.327
4,E74L,0.384
5,K70Q,0.437
6,K70V,0.479
7,K70S,0.325
8,K70R,2.14
9,K70L,0.121
10,K70E,0.134
11,K70M,0.175
12,K70F,0.163
13,K70T,0.397
14,K70Y,0.12
15,K70D,0.0985
16,K70H,0.709
17,K70G,0.0856
18,K70C,0.313
19,K70P,0.178
20,K70I,0.33
21,K70W,0.129
22,K70A,0.434
23,K70N,0.476
24,I80F,0.463

row,Variant,THAP1 transcriptional activity
1,I80T,0.298
2,I80L,0.606
3,I80C,0.239
4,I80A,0.266
5,I80E,0.459
6,I80D,0.29
7,I80M,0.484
8,I80P,0.235
9,I80V,0.963
10,I80W,0.268
11,I80H,0.323
12,I80R,0.963
13,I80G,0.55
14,I80N,0.429
15,I80S,0.272
16,I80Q,0.628
17,N75Q,0.684
18,N75A,0.373
19,N75C,0.38
20,N75F,0.875
21,N75I,0.302
22,N75L,0.286
23,N75G,1.42
24,N75P,0.241

row,Variant,THAP1 transcriptional activity
1,N75H,0.567
2,N75R,0.829
3,N75V,0.214
4,N75Y,0.177
5,N75D,0.507
6,N75W,0.844
7,N75M,0.658
8,N75T,0.612
9,N75K,0.45
10,N75E,0.468
11,C67A,0.639
12,C67F,0.147
13,C67G,0.127
14,C67M,0.594
15,C67Y,0.2
16,C67L,0.481
17,C67N,0.17
18,C67S,0.964
19,C67Q,0.239
20,C67K,0.472
21,C67I,0.198
22,C67D,0.135
23,C67W,0.116
24,C67E,0.119

row,Variant,THAP1 transcriptional activity
1,C67V,0.777
2,C67T,1.19
3,C67H,0.198
4,C67R,0.502
5,C67P,0.13
6,F81S,0.443
7,F81V,0.312
8,F81T,0.207
9,F81L,0.224
10,F81N,0.75
11,F81A,0.367
12,F81I,0.536
13,F81M,0.341
14,F81Q,0.206
15,F81P,0.275
16,F81R,0.298
17,F81C,0.223
18,F81G,0.402
19,F81H,0.525
20,F81Y,0.214
21,F81E,0.405
22,F81D,0.125
